Source: PMC10917059, “RhoU forms homo-oligomers to regulate cellular responses” (Journal of Cell Science, 2024)

Biological target: the molecule itself
Assay: cross-linking; lysates of transfected COS7 cells in 20 mM HEPES pH 7.2, 1% Triton X-100, incubated with DSS (0.25 mM in the methods; increasing concentrations in the results) or DMSO for 30 min at 4°C; anti-Myc blot

B1: Myc–RhoU (natural protein)
chain: not shown
notes: vector a gift from Pontus Aspenström; also called pRK5-myc-RhoU; full-length RhoU; source: COS7, transfected, in lysate; not shown: Myc, N-terminal, kept
stoichiometry N: 2
